B1: bovine iCP subunit α4 (natural protein)
chain: not shown
notes: 20S proteasome subunit α4, bovine; Stood in the experiments as a subunit of m2; source: purified from bovine spleen as a subunit of the iCP
B2: human PA28α (natural protein)
chain: MAMLRVQPEAQAKVDVFREDLCTKTENLLGSYFPKKISELDAFLKEPALNEANLSNLKAPLDIPVPDPVKEKEKEERKKQQEKEDKDEKKKGEDEDKGPPCGPVNCNEKIVVLLQRLKPEIKDVIEQLNLVTTWLQLQIPRIEDGNNFGVAVQEKVFELMTSLHTKLEGFHTQISKYFSERGDAVTKAAKQPHVGDYRQLVHELDEAEYRDIRLMVMEIRNAYAVLYDIILKNFEKLKKPRGETKGMIY
notes: C-terminal residue printed as Y249; Stood in the experiments as a subunit of m1; also called PA28 α1, α2, α3, α4 (its copies in the heptamer); source: E. coli BL21 (DE3), co-expressed with PA28β, purified as the PA28αβ heteroheptamer
B3: human PA28β (natural protein)
chain: not shown
notes: C-terminal residue printed as Y239; Stood in the experiments as a subunit of m1; also called PA28 β1, β2, β3 (its copies in the heptamer); source: E. coli BL21 (DE3), co-expressed with PA28α, purified as the PA28αβ heteroheptamer

Experiments:
Settings in all cases: both partners purified
[1] = target: B3; assay: cryo-EM structure; PA28αβ and iCP mixed at a molar ratio of 10:1, 37 °C 30 min, cross-linked with 0.1% glutaraldehyde at 4 °C for 2 h, glycerol gradient; single-capped (4.1 Å) and double-capped (4.2 Å) complexes and free iCP (3.3 Å) from one data set
[2] = target: B2; assay: as above
[3] = target: T1, bovine iCP subunit α3 (bovine, UniProt Q3ZCK9 1-261); assay: as above
T1 construct: 20S proteasome subunit α3, bovine; Stood in the experiments as a subunit of m2; source: purified from bovine spleen as a subunit of the iCP

[4] = target: T2, bovine iCP subunit α6 (bovine, UniProt Q3T0X5 1-263); assay: cross-linking; XL-MS: PA28αβ and iCP mixed 10:1, 37 °C 30 min, 0.25 mM BS3 on ice 2 h, glycerol gradient, trypsin digest, pLink2; E-value threshold 1.00E-02
T2 construct: 20S proteasome subunit α6, bovine; Stood in the experiments as a subunit of m2; source: purified from bovine spleen as a subunit of the iCP

[5] = target: B1; assay: cryo-EM structure; PA28αβ and iCP mixed at a molar ratio of 10:1, 37 °C 30 min, cross-linked with 0.1% glutaraldehyde at 4 °C for 2 h, glycerol gradient; single-capped (4.1 Å) and double-capped (4.2 Å) complexes and free iCP (3.3 Å) from one data set

T1 sequence (Q3ZCK9 whole entry): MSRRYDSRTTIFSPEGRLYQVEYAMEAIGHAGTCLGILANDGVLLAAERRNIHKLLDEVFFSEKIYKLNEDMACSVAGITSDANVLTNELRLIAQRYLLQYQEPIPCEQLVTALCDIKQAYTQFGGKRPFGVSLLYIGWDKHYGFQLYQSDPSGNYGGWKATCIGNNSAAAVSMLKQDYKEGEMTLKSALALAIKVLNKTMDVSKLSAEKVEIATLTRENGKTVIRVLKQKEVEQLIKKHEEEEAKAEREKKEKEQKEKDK
T2 sequence (Q3T0X5 whole entry): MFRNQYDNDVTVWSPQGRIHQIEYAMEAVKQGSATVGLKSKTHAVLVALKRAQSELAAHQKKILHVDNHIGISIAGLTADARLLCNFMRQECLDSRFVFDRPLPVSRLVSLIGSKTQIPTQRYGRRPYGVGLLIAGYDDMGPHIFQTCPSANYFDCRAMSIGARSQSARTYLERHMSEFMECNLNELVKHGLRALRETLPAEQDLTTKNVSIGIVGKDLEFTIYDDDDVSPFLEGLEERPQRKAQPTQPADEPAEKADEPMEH

Row | Binder | binding result [2] | binding result [3] | other results
1 | bovine iCP subunit α2 (natural protein, UniProt Q3T0Y5 1-234, looked up, 20S proteasome subunit α2, bovine; Stood in the experiments as a subunit of m2; source: purified from bovine spleen as a subunit of the iCP) MAERGYSFSLTTFSPSGKLVQIEYALAAVAGGAPSVGIKAANGVVLATEKKQKSILYDERSVHKVEPITKHIGLVYSGMGPDYRVLVHRARKLAQQYYLVYQEPIPTAQLVQRVASVMQEYTQSGGVRPFGVSLLICGWNEGRPYLFQSDPSGAYFAWKATAMGKNYVNGKTFLEKRYNEDLELEDAIHTAILTLKESFEGQMTEDNIEVGICNEAGFRRLTPTEVKDYLAAIA | binds | – | binding result [1]: binds
2 | B1 | binds | – | –
3 | B2 | – | binds | –
4 | bovine iCP subunit α5 (natural protein, UniProt Q5E987 1-241, looked up, 20S proteasome subunit α5, bovine; Stood in the experiments as a subunit of m2; source: purified from bovine spleen as a subunit of the iCP) MFLTRSEYDRGVNTFSPEGRLFQVEYAIEAIKLGSTAIGIQTSEGVCLAVEKRITSPLMEPSSIEKIVEIDAHIGCAMSGLIADAKTLIDKARVETQNHWFTYNETMTVESVTQAVSNLALQFGEEDADPGAMSRPFGVALLFGGVDEKGPQLFHMDPSGTFVQCDARAIGSASEGAQSSLQEVYHKSMTLKEAIKSSLIILKQVMEEKLNATNIELATVQPGQNFHMFTKEELEEVIKDI | binds | – | –
5 | B3 | – | binds | binding result [4]: binds; binding result [5]: binds

Source: PMC7854634, “Cryo-EM of mammalian PA28αβ-iCP immunoproteasome reveals a distinct mechanism of proteasome activation by PA28αβ” (Nature Communications, 2021)
